Experimental data from the supplement of paper PMC7877785.
± gives the uncertainty stated by the source.

Assay: self-splicing fitness, log relative to wild type (ln ratio); higher = more splicing; Tetrahymena group I intron in knt gene, E. coli kanamycin selection, DiMSum; sequences stand for … in CUCUCU…GGAGGGAAAAGUUAUCAGGCAUGCACCUGGUAGCUAGUCUUUAAACCAAUAGAUUGCAUCGGUUUAAAAGGCAAGACCGUCAAAUUGCGGGAAAGGGGUCAACAGCCGUUCAGUACCAAGUCUCAGGGGAAACUUUGAGAUGGCCUUGCAAAGGGUAUGGUAAUAAGCUGACGGACAUGGUCCUAACCACGCAGCCAAGUCCUAAGUCAACAGAUCUUCUGUUGAUAUGGAUGCAGUUCACAGACUAAAUGUCGGUCGGGGAAGAUGUAUUCUUCUCAUAAGAUAUAGUCGGACCUCUCCUUAAUGGGAGCUAGCGGAUGAAGUGAUGCAACACUGGAGCCGCUGGGAACUAAUUUGUAUGCGAAAGUAUAUUGAUUAGUUUUGGAGUACUCGUGGUCG
Outline: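 The eight P1ex-region nucleotides of an intron in the knt kanamycin-resistance gene on pET-22b(+) were all randomised and the library put into E. coli BL21(DE3). Six replicate transformations were grown overnight at 37°C or 30°C on LB agar with or without 25 μg/mL kanamycin, together with 100 μg/mL carbenicillin, 50 μM IPTG and 0.2% rhamnose. Colonies were pooled and amplicon-sequenced on an Illumina HiSeq 2500. Fitness from DiMSum is the error-weighted combination of wild-type-normalised replicate fold changes, kanamycin over none.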

| Sequence | self-splicing fitness (ln) (30 °C) | self-splicing fitness (ln) (37 °C) |
| --- | --- | --- |
| AAGUAGCAAUAUUACGCUGA | -1.36 ± 0.15 | -0.457 ± 0.14 |
| AAGUAGCAAUAUUACGCUUG | -1.6 ± 0.097 | -0.42 ± 0.1 |
| AAGUAGCAAUAUUACGGGUC | -3.44 ± 0.16 | -2.84 ± 0.19 |
| AAGUAGCAAUAUUACGUACU | -0.863 ± 0.19 | -0.429 ± 0.19 |
| AAGUAGCAAUAUUACGUCCU | -0.128 ± 0.11 | 0.294 ± 0.14 |
| AAGUAGCAAUAUUACGUGCU | -1.29 ± 0.08 | -0.982 ± 0.1 |
| AAGUAGCAAUAUUACGUGGU | -3.68 ± 0.18 | -1.93 ± 0.15 |
| AAGUAGCAAUAUUACGUUAU | -1.93 ± 0.13 | -0.642 ± 0.11 |
| AAGUAGCAAUAUUACGUUCA | -0.86 ± 0.081 | 0.409 ± 0.096 |
| AAUAAGCAAUAUUACGACCA | -0.614 ± 0.18 | 0.141 ± 0.29 |
| AAUAAGCAAUAUUACGAGAA | -3.24 ± 0.38 | -1.55 ± 0.27 |
| AAUAAGCAAUAUUACGAGUG | -1.05 ± 0.07 | -0.56 ± 0.09 |
| AAUAAGCAAUAUUACGAUAA | -1.9 ± 0.19 | -1.03 ± 0.18 |
| AAUAAGCAAUAUUACGAUUA | -0.789 ± 0.12 | 0.438 ± 0.14 |
| AAUAAGCAAUAUUACGCGAG | -1.14 ± 0.097 | -0.557 ± 0.1 |
| AAUAAGCAAUAUUACGCUUU | -3.49 ± 0.21 | -3.26 ± 0.23 |
| AAUAAGCAAUAUUACGGAGG | -3.19 ± 0.18 | -1.93 ± 0.2 |
| AAUAAGCAAUAUUACGGAUA | -2.35 ± 0.14 | -1.68 ± 0.15 |
| AAUAAGCAAUAUUACGGCUU | -0.403 ± 0.12 | -0.12 ± 0.14 |
| AAUAAGCAAUAUUACGGUCG | -1.03 ± 0.098 | -0.232 ± 0.12 |
| AAUAAGCAAUAUUACGUGGU | -3.77 ± 0.17 | -2.63 ± 0.14 |
| AAUAAGCAAUAUUACGUUCA | -0.963 ± 0.084 | -0.348 ± 0.12 |
| AAUCAGCAAUAUUACGAAAC | -1.97 ± 0.19 | -0.858 ± 0.16 |
| AAUCAGCAAUAUUACGACAC | -0.56 ± 0.12 | -1.46 ± 0.15 |

| Sequence | self-splicing fitness (ln) (30 °C) | self-splicing fitness (ln) (37 °C) |
| --- | --- | --- |
| AAUCAGCAAUAUUACGACCC | 0.168 ± 0.15 | -0.615 ± 0.16 |
| AAUCAGCAAUAUUACGACUA | 0.113 ± 0.14 | -0.783 ± 0.12 |
| AAUCAGCAAUAUUACGAGAG | -1.82 ± 0.15 | -1.13 ± 0.13 |
| AAUCAGCAAUAUUACGAGUC | -2.05 ± 0.11 | -1.21 ± 0.11 |
| AAUCAGCAAUAUUACGAUCU | 0.0008 ± 0.059 | 0.914 ± 0.088 |
| AAUCAGCAAUAUUACGAUGC | -0.408 ± 0.076 | 0.219 ± 0.096 |
| AAUCAGCAAUAUUACGCAAG | -0.971 ± 0.068 | -0.72 ± 0.087 |
| AAUCAGCAAUAUUACGCCCG | -0.416 ± 0.14 | -0.489 ± 0.16 |
| AAUCAGCAAUAUUACGCCUC | -1.12 ± 0.13 | -0.226 ± 0.17 |
| AAUCAGCAAUAUUACGCGCU | -1.16 ± 0.075 | -0.732 ± 0.084 |
| AAUCAGCAAUAUUACGCUCG | -0.0659 ± 0.091 | -0.114 ± 0.12 |
| AAUCAGCAAUAUUACGGAUA | -0.0268 ± 0.069 | 0.49 ± 0.086 |
| AAUCAGCAAUAUUACGGAUG | -0.144 ± 0.066 | 0.153 ± 0.085 |
| AAUCAGCAAUAUUACGGCAA | -0.417 ± 0.074 | 0.747 ± 0.091 |
| AAUCAGCAAUAUUACGGCUC | -0.84 ± 0.082 | 0.535 ± 0.097 |
| AAUCAGCAAUAUUACGGGAG | -1.48 ± 0.054 | -0.88 ± 0.068 |
| AAUCAGCAAUAUUACGGGAU | -1.45 ± 0.08 | -1.34 ± 0.087 |
| AAUCAGCAAUAUUACGGUCC | -0.242 ± 0.085 | -0.118 ± 0.1 |
| AAUCAGCAAUAUUACGUAGA | -0.378 ± 0.071 | -0.124 ± 0.089 |
| AAUCAGCAAUAUUACGUAUG | -0.407 ± 0.079 | 0.138 ± 0.11 |
| AAUCAGCAAUAUUACGUCUC | -0.509 ± 0.091 | -0.314 ± 0.093 |
| AAUCAGCAAUAUUACGUUGA | -0.828 ± 0.086 | -0.22 ± 0.1 |
| AAUGAGCAAUAUUACGAACG | -2.46 ± 0.31 | -1.74 ± 0.3 |
| AAUGAGCAAUAUUACGAAUC | – | -1.74 ± 0.3 |

| Sequence | self-splicing fitness (ln) (30 °C) | self-splicing fitness (ln) (37 °C) |
| --- | --- | --- |
| AAUGAGCAAUAUUACGACUG | -3.77 ± 0.28 | -0.811 ± 0.19 |
| AAUGAGCAAUAUUACGAGUU | -3.21 ± 0.28 | -1.8 ± 0.31 |
| AAUGAGCAAUAUUACGAUCU | -0.572 ± 0.074 | -0.195 ± 0.1 |
| AAUGAGCAAUAUUACGCAAG | -3.81 ± 0.27 | -2.45 ± 0.38 |
| AAUGAGCAAUAUUACGCGAA | -3.05 ± 0.18 | -2.7 ± 0.22 |
| AAUGAGCAAUAUUACGCGUG | -2.11 ± 0.11 | -0.949 ± 0.1 |
| AAUGAGCAAUAUUACGGACA | -2.93 ± 0.45 | – |
| AAUGAGCAAUAUUACGGCAC | -2.9 ± 0.28 | -1.27 ± 0.32 |
| AAUGAGCAAUAUUACGGCUC | -1.82 ± 0.23 | -2.03 ± 0.38 |
| AAUGAGCAAUAUUACGGCUU | -1.85 ± 0.19 | -1.19 ± 0.18 |
| AAUGAGCAAUAUUACGGGAA | -2.61 ± 0.26 | -3.04 ± 0.33 |
| AAUGAGCAAUAUUACGGGAC | -2.96 ± 0.26 | -1.36 ± 0.25 |
| AAUGAGCAAUAUUACGGGGG | -4.09 ± 0.42 | -1.32 ± 0.25 |
| AAUGAGCAAUAUUACGGUUU | -2.13 ± 0.097 | -0.543 ± 0.11 |
| AAUGAGCAAUAUUACGUAGU | -3.83 ± 0.22 | -2.22 ± 0.21 |
| AAUGAGCAAUAUUACGUCUG | -2.92 ± 0.15 | -3 ± 0.21 |
| AAUGAGCAAUAUUACGUGAG | -3.5 ± 0.23 | -1.78 ± 0.14 |
| AAUGAGCAAUAUUACGUGCA | -2.95 ± 0.22 | -0.932 ± 0.14 |
| AAUGAGCAAUAUUACGUGCU | -3.93 ± 0.36 | -2.44 ± 0.25 |
| AAUUAGCAAUAUUACGACGC | -1.08 ± 0.14 | -0.792 ± 0.13 |
| AAUUAGCAAUAUUACGAGAA | -2.65 ± 0.48 | -1.05 ± 0.28 |
| AAUUAGCAAUAUUACGAGAU | -2.7 ± 0.17 | -2.16 ± 0.17 |
| AAUUAGCAAUAUUACGAGCG | -1.1 ± 0.096 | -0.749 ± 0.099 |
| AAUUAGCAAUAUUACGAGCU | -1.02 ± 0.12 | -0.169 ± 0.15 |

| Sequence | self-splicing fitness (ln) (30 °C) | self-splicing fitness (ln) (37 °C) |
| --- | --- | --- |
| AAUUAGCAAUAUUACGAUCC | -0.705 ± 0.18 | -0.148 ± 0.26 |
| AAUUAGCAAUAUUACGAUCU | 0.226 ± 0.09 | 0.704 ± 0.11 |
| AAUUAGCAAUAUUACGCCUA | 0.234 ± 0.13 | 0.297 ± 0.15 |
| AAUUAGCAAUAUUACGCGGC | -2.28 ± 0.39 | -1.32 ± 0.3 |
| AAUUAGCAAUAUUACGCUAA | -2.5 ± 0.28 | -2.27 ± 0.24 |
| AAUUAGCAAUAUUACGCUGG | -1.35 ± 0.17 | -1.01 ± 0.2 |
| AAUUAGCAAUAUUACGCUUG | -0.701 ± 0.07 | 0.227 ± 0.095 |
| AAUUAGCAAUAUUACGGACG | -1.29 ± 0.16 | 0.266 ± 0.12 |
| AAUUAGCAAUAUUACGGAGU | -2.69 ± 0.2 | -1.02 ± 0.17 |
| AAUUAGCAAUAUUACGGAUG | -2.06 ± 0.12 | -0.146 ± 0.15 |
| AAUUAGCAAUAUUACGGUAC | -2.42 ± 0.16 | -1.22 ± 0.2 |
| AAUUAGCAAUAUUACGGUCA | 0.31 ± 0.12 | -0.629 ± 0.098 |
| AAUUAGCAAUAUUACGGUGG | -2.7 ± 0.18 | -1.96 ± 0.22 |
| AAUUAGCAAUAUUACGUGAA | -2.4 ± 0.15 | -1.22 ± 0.17 |
| AAUUAGCAAUAUUACGUGCC | -1.48 ± 0.082 | -0.857 ± 0.11 |
| AAUUAGCAAUAUUACGUGCU | -2.18 ± 0.12 | -1.33 ± 0.11 |
| AAUUAGCAAUAUUACGUUUG | -3.16 ± 0.22 | -2.9 ± 0.27 |
| ACAAAGCAAUAUUACGAAUC | -2.69 ± 0.19 | -1.66 ± 0.17 |
| ACAAAGCAAUAUUACGACCC | -0.934 ± 0.16 | 0.532 ± 0.21 |
| ACAAAGCAAUAUUACGAGCG | -0.894 ± 0.084 | 0.57 ± 0.096 |
| ACAAAGCAAUAUUACGAGUA | -3.03 ± 0.16 | -1.7 ± 0.11 |
| ACAAAGCAAUAUUACGAUAC | -2.89 ± 0.2 | -2.29 ± 0.16 |
| ACAAAGCAAUAUUACGAUCA | -0.675 ± 0.066 | -0.735 ± 0.093 |
